Data reported in article PMC6234289.

Biological target: ribosome (40S ribosomal subunit) of RACK1-downregulated HeLa cells
Experiment: in vitro ribosome interaction assay (iRIA)
Details: parent: est. 1.1; read off a plot

- response: 0.47 Abs450
Substance: MBP-RACK1, wild type (from UniProt P63244) R36D; K38E
